Measurements published in US20260049138A1 (Chugai, published 2026).
Numbering of substitutions follows the chain as printed. Numbers in names are those of the source.

B1: CE115HA000 N76S one-arm antibody (antibody, human IgG1, kappa, L234A L235A, N297A, name in Kabat numbering)
heavy: QVQLVESGGGVVQPGRSLRLSCAASGFTFSNAWMHWVRQAPGKGLEWVAQIKAKSNNYATYYAESVKGRFTISRDDSKSSLYLQMNSLKTEDTAVYYCRYVHYGAYYGVDAWGQGTTVTVSSASTKGPSVFPLAPSSKSTSGGTAALGCLVKDYFPEPVTVSWNSGALTSGVHTFPAVLQSSGLYSLSSVVTVPSSSLGTQTYICNVNHKPSNTKVDKKVEPKSCDKTHTCPPCPAPEAAGGPSVFLFPPKPKDTLMISRTPEVTCVVVDVSHEDPEVKFNWYVDGVEVHNAKTKPREEQYASTYRVVSVLTVLHQDWLNGKEYKCKVSNKALPAPIEKTISKAKGQPREPQVYTLPPSRCELTKNQVSLSCAVKGFYPSDIAVEWESNGQPENNYKTTPPVLDSDGSFFLVSKLTVDKSRWQQGNVFSCSVMHEALHNHYTQKSLSLSPDYKDDDDK
chain: EPKSSDKTHTCPPCPAPELLGGPSVFLFPPKPKDTLMISRTPEVTCVVVDVSHEDPEVKFNWYVDGVEVHNAKTKPREEQYNSTYRVVSVLTVLHQDWLNGKEYKCKVSNKALPAPIEKTISKAKGQPREPQVCTLPPSRDELTKNQVSLWCLVKGFYPSDIAVEWESNGQPENNYKTTPPVLDSDGSFFLYSKLTVDKSRWQQGNVFSCSVMHEALHNRYTQKSLSLSP
light: DIVMTQSPLSLPVTPGEPASISCRSSQSLVHSNRNTYLHWYQQKPGQAPRLLIYKVSNRFSGVPDRFSGSGSGTDFTLKISRVEAEDVGVYYCGQGTQVPYTFGQGTKLEIKRTVAAPSVFIFPPSDEQLKSGTASVVCLLNNFYPREAKVQWKVDNALQSGNSQESVTEQDSKDSTYSLSSTLTLSKADYEKHKVYACEVTHQGLSSPVTKSFNRGEC
B2: CE115HA000 N82aD one-arm antibody (antibody, human IgG1, kappa, L234A L235A, N297A, name in Kabat numbering)
heavy: B1 heavy with S79N, N86D
chain: B1 chain
light: B1 light
B3: CE115HA000 R16E one-arm antibody (antibody, human IgG1, kappa, L234A L235A, N297A, name in Kabat numbering)
heavy: B1 heavy with R16E, S79N
chain: B1 chain
light: B1 light
B4: CE115HA000 S52cQ one-arm antibody (antibody, human IgG1, kappa, L234A L235A, N297A, name in Kabat numbering)
heavy: B1 heavy with S55Q, S79N
chain: B1 chain
light: B1 light
B5: CE115HA000 Q50Y one-arm antibody (antibody, human IgG1, kappa, L234A L235A, N297A, name in Kabat numbering)
heavy: B1 heavy with Q50Y, S79N
chain: B1 chain
light: B1 light
B6: CE115HA000 Q105E one-arm antibody (antibody, human IgG1, kappa, L234A L235A, N297A, name in Kabat numbering)
heavy: B1 heavy with S79N, Q114E
chain: B1 chain
light: B1 light
B7: CE115HA000 Q50S one-arm antibody (antibody, human IgG1, kappa, L234A L235A, N297A, name in Kabat numbering)
heavy: B1 heavy with Q50S, S79N
chain: B1 chain
light: B1 light
B8: CE115HA000 S74A one-arm antibody (antibody, human IgG1, kappa, L234A L235A, N297A, name in Kabat numbering)
heavy: B1 heavy with S77A, S79N
chain: B1 chain
light: B1 light
B9: CE115HA000 S52cV one-arm antibody (antibody, human IgG1, kappa, L234A L235A, N297A, name in Kabat numbering)
heavy: B1 heavy with S55V, S79N
chain: B1 chain
light: B1 light
B10: CE115HA000 Q50I one-arm antibody (antibody, human IgG1, kappa, L234A L235A, N297A, name in Kabat numbering)
heavy: B1 heavy with Q50I, S79N
chain: B1 chain
light: B1 light
B11: CE115HA000 S52cL one-arm antibody (antibody, human IgG1, kappa, L234A L235A, N297A, name in Kabat numbering)
heavy: B1 heavy with S55L, S79N
chain: B1 chain
light: B1 light
B12: CE115HA000 Q50K one-arm antibody (antibody, human IgG1, kappa, L234A L235A, N297A, name in Kabat numbering)
heavy: B1 heavy with Q50K, S79N
chain: B1 chain
light: B1 light
B13: CE115HA000 S52cD one-arm antibody (antibody, human IgG1, kappa, L234A L235A, N297A, name in Kabat numbering)
heavy: B1 heavy with S55D, S79N
chain: B1 chain
light: B1 light
B14: CE115HA000 Q50A one-arm antibody (antibody, human IgG1, kappa, L234A L235A, N297A, name in Kabat numbering)
heavy: B1 heavy with Q50A, S79N
chain: B1 chain
light: B1 light
B15: CE115HA000 R16Q one-arm antibody (antibody, human IgG1, kappa, L234A L235A, N297A, name in Kabat numbering)
heavy: B1 heavy with R16Q, S79N
chain: B1 chain
light: B1 light
B16: CE115HA000 S30G one-arm antibody (antibody, human IgG1, kappa, L234A L235A, N297A, name in Kabat numbering)
heavy: B1 heavy with S30G, S79N
chain: B1 chain
light: B1 light
B17: CE115HA000 S52cY one-arm antibody (antibody, human IgG1, kappa, L234A L235A, N297A, name in Kabat numbering)
heavy: B1 heavy with S55Y, S79N
chain: B1 chain
light: B1 light
B18: CE115HA000 S52cA one-arm antibody (antibody, human IgG1, kappa, L234A L235A, N297A, name in Kabat numbering)
heavy: B1 heavy with S55A, S79N
chain: B1 chain
light: B1 light
B19: CE115HA000 S62E one-arm antibody (antibody, human IgG1, kappa, L234A L235A, N297A, name in Kabat numbering)
heavy: B1 heavy with S65E, S79N
chain: B1 chain
light: B1 light
B20: CE115HA000 R19T one-arm antibody (antibody, human IgG1, kappa, L234A L235A, N297A, name in Kabat numbering)
heavy: B1 heavy with R19T, S79N
chain: B1 chain
light: B1 light
B21: CE115HA000 S77T one-arm antibody (antibody, human IgG1, kappa, L234A L235A, N297A, name in Kabat numbering)
heavy: B1 heavy with S79N, S80T
chain: B1 chain
light: B1 light
B22: CE115HA000 S74P one-arm antibody (antibody, human IgG1, kappa, L234A L235A, N297A, name in Kabat numbering)
heavy: B1 heavy with S77P, S79N
chain: B1 chain
light: B1 light
B23: CE115HA000 S52cF one-arm antibody (antibody, human IgG1, kappa, L234A L235A, N297A, name in Kabat numbering)
heavy: B1 heavy with S55F, S79N
chain: B1 chain
light: B1 light
B24: CE115HA000 S30D one-arm antibody (antibody, human IgG1, kappa, L234A L235A, N297A, name in Kabat numbering)
heavy: B1 heavy with S30D, S79N
chain: B1 chain
light: B1 light
B25: CE115HA000 Q50L one-arm antibody (antibody, human IgG1, kappa, L234A L235A, N297A, name in Kabat numbering)
heavy: B1 heavy with Q50L, S79N
chain: B1 chain
light: B1 light
B26: CE115HA000 S62P one-arm antibody (antibody, human IgG1, kappa, L234A L235A, N297A, name in Kabat numbering)
heavy: B1 heavy with S65P, S79N
chain: B1 chain
light: B1 light
B27: CE115HA000 S52cG one-arm antibody (antibody, human IgG1, kappa, L234A L235A, N297A, name in Kabat numbering)
heavy: B1 heavy with S55G, S79N
chain: B1 chain
light: B1 light
B28: CE115HA000 Q50D one-arm antibody (antibody, human IgG1, kappa, L234A L235A, N297A, name in Kabat numbering)
heavy: B1 heavy with Q50D, S79N
chain: B1 chain
light: B1 light
B29: CE115HA000 S52cK one-arm antibody (antibody, human IgG1, kappa, L234A L235A, N297A, name in Kabat numbering)
heavy: B1 heavy with S55K, S79N
chain: B1 chain
light: B1 light
B30: CE115HA000 Q50E one-arm antibody (antibody, human IgG1, kappa, L234A L235A, N297A, name in Kabat numbering)
heavy: B1 heavy with Q50E, S79N
chain: B1 chain
light: B1 light
B31: CE115HA000 S62K one-arm antibody (antibody, human IgG1, kappa, L234A L235A, N297A, name in Kabat numbering)
heavy: B1 heavy with S65K, S79N
chain: B1 chain
light: B1 light
B32: CE115HA000 S62D one-arm antibody (antibody, human IgG1, kappa, L234A L235A, N297A, name in Kabat numbering)
heavy: B1 heavy with S65D, S79N
chain: B1 chain
light: B1 light

Target: T1, CD3ε homodimer protein (human, UniProt P07766 23-126, limits assumed, sulfo-tag or biotin label in the ECL assays; amine-coupled to the chip in SPR)
T1 construct: also called human CD3ε homodimer protein; CD3 (CD3ε)
T1 sequence (P07766 23-126 limits assumed): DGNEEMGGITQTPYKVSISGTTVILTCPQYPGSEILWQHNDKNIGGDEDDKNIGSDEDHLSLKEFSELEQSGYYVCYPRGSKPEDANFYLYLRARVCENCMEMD
Test: SPR Biacore T200; CD3ε homodimer on CM4 chip;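 note: Single-residue variant antibodies injected as analyte over CD3ε homodimer immobilized by amine coupling, run at 25 °C in HBS-EP+ buffer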

Row | Binder | ratio of amounts bound Z=Y/X (altered form / CE115HA000)
1 | B1 | 0.92
2 | B2 | 0.73
3 | B3 | 0.88
4 | B4 | 1.04
5 | B5 | 0.25
6 | B6 | 0.94
7 | B7 | 0.24
8 | B8 | 1.05
9 | B9 | 0.93
10 | B10 | 0.4
11 | B11 | 0.98
12 | B12 | 0.33
13 | B13 | 0.6
14 | B14 | 0.24
15 | B15 | 0
16 | B16 | 1.01

Row | Binder | ratio of amounts bound Z=Y/X (altered form / CE115HA000)
17 | B17 | 1.11
18 | B18 | 0.96
19 | B19 | 0.92
20 | B20 | 0.8
21 | B21 | 0.9
22 | B22 | 0.91
23 | B23 | 1.13
24 | B24 | 0.86
25 | B25 | 0.23
26 | B26 | 1
27 | B27 | 0.97
28 | B28 | 0.27
29 | B29 | 1.19
30 | B30 | 0.26
31 | B31 | 1.19
32 | B32 | 0.92
